Experimental data taken from the supplement of paper PMC5998384.

Key:
HeLa Kyoto [1] = test: melting temperature (median over replicates), in situ; higher = more thermally stable
HeLa Kyoto [2] = test: thermal stability score vs G1/S (z-score of summed log2 fold changes over temperatures); higher = more thermally stable than in G1/S
HeLa Kyoto [3] = test: solubility in G1/S (NP-40 vs SDS abundance) (log2 ratio); higher = more soluble; details: cell cycle stage: G1/S
HeLa Kyoto [4] = test: solubility change mitosis vs G1/S (difference of NP-40 vs SDS log2 ratios) (log2 ratio difference); higher = more soluble in mitosis
[5] = cell cycle stage: early G1 (4.5 h after nocodazole release)
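For melting temperature (median over replicates), in situ in this document: HeLa Kyoto cells synchronized by double thymidine or nocodazole block, proteins quantified by TMT10plex mass spectrometry, three independent biological replicates.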
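For solubility change mitosis vs G1/S (difference of NP-40 vs SDS log2 ratios) in this document: synchronized HeLa Kyoto cells (double thymidine block for G1/S, nocodazole release for mitosis), protein amounts in NP-40 versus SDS lysates quantified by mass spectrometry, three biological replicates.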
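For solubility in G1/S (NP-40 vs SDS abundance) in this document: HeLa Kyoto cells arrested at G1/S by double thymidine block, proteins quantified by TMT10plex mass spectrometry in mild NP-40 versus SDS extracts, three biological replicates.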
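For thermal stability score vs G1/S (z-score of summed log2 fold changes over temperatures) in this document: synchronized HeLa Kyoto cells, proteins quantified by TMT10plex mass spectrometry, three biological replicates, mitosis taken 0.5 h after nocodazole release, G1/S directly after double thymidine block.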

Sequence | melting temperature (HeLa Kyoto [1]; cell cycle stage: G1/S) | melting temperature (HeLa Kyoto [1]; cell cycle stage: mitosis) | thermal stability score (HeLa Kyoto [2]; [5]) | thermal stability score (HeLa Kyoto [2]; cell cycle stage: mitosis) | solubility in G1/S (log2) (HeLa Kyoto [3]) | solubility change mitosis (log2) (HeLa Kyoto [4])
MWNMLIVAMCLALLGCLQAQELQGHVSIILLGATGDLAKKYLWQGLFQLYLDEAGRGHSFSFHGAALTAPKQGQELMAKALESLSCPKDMAPSHCAEHKDQFLQLSQYRQLKTAEDYQALNKDIEAQLQHAGLREAGRIFYFSVPPFAYEDIARNINSSCRPGPGAWLRVVLEKPFGHDHFSAQQLATELGTFFQEEEMYRVDHYLGKQAVAQILPFRDQNRKALDGLWNRHHVERVEIIMKETVDAEGRTSFYEEYGVIRDVLQNHLTEVLTLVAMELPHNVSSAEAVLRHKLQVFQALRGLQRGSAVVGQYQSYSEQVRRELQKPDSFHSLTPTFAAVLVHIDNLRWEGVPFILMSGKALDERVGYARILFKNQACCVQSEKHWAAAQSQCLPRQLVFHIGHGDLGSPAVLVSRNLFRPSLPSSWKEMEGPPGLRLFGSPLSDYYAYSPVRERDAHSVLLSHIFHGRKNFFITTENLLASWNFWTPLLESLAHKAPRLYPGGAENGRLLDFEFSSGRLFFSQQQPEQLVPGPGPAPMPSDFQVLRAKYRESPLVSAWSEELISKLANDIEATAVRAVRRFGQFHLALSGGSSPVALFQQLATAHYGFPWAHTHLWLVDERCVPLSDPESNFQGLQAHLLQHVRIPYYNIHPMPVHLQQRLCAEEDQGAQIYAREISALVANSSFDLVLLGMGADGHTASLFPQSPTGLDGEQLVVLTTSPSQPHRRMSLSLPLINRAKKVAVLVMGRMKREITTLVSRVGHEPKKWPISGVLPHSGQLVWYMDYDAFLG [H6PD] | 53.3 °C | 53.7 °C | 1.01 | 2.18 | 0.122 | 0.0207
MWRGLWTLAAQAARGPRRLCTRRSSGAPAPGSGATIFALSSGQGRCGIAVIRTSGPASGHALRILTAPRDLPLARHASLRLLSDPRSGEPLDRALVLWFPGPQSFTGEDCVEFHVHGGPAVVSGVLQALGSVPGLRPAEAGEFTRRAFANGKLNLTEVEGLADLIHAETEAQRRQALRQLDGELGHLCRGWAETLTKALAHVEAYIDFGEDDNLEEGVLEQADIEVRALQVALGAHLRDARRGQRLRSGVHVVVTGPPNAGKSSLVNLLSRKPVSIVSPEPGTTRDVLETPVDLAGFPVLLSDTAGLREGVGPVEQEGVRRARERLEQADLILAMLDASDLASPSSCNFLATVVASVGAQSPSDSSQRLLLVLNKSDLLSPEGPGPGPDLPPHLLLSCLTGEGLDGLLEALRKELAAVCGDPSTDPPLLTRARHQHHLQGCLDALGHYKQSKDLALAAEALRVARGHLTRLTGGGGTEEILDIIFQDFCVGK [GTPBP3] | 53.2 °C | 52.4 °C | -0.238 | -0.0908 | 0.505 | 0.0593
MWRLPGARAALRVIRTAVEKLSRAEAGSQTAAGAMERAVVRCVPSEPKLSLSFALADGSHKNMQRDQSEPLGRVLSRIATNALKGHAKAAAAKKSRKSRPNASGGAACSGPGPEPAVFCEPVVKLYYREEAVAEDVLNVDAWQDGAVLQIGDVKYKVERNPPAFTELQLPRYIMAGFPVCPKLSLEFGDPASSLFRWYKEAKPGAAEPEVGVPSSLSPSSPSSSWTETDVEERVYTPSNADIGLRLKLHCTPGDGQRFGHSRELESVCVVEAGPGTCTFDHRHLYTKKVTEDALIRTVSYNILADTYAQTEFSRTVLYPYCAPYALELDYRQNLIQKELTGYNADVICLQEVDRAVFSDSLVPALEAFGLEGVFRIKQHEGLATFYRKSKFSLLSQHDISFYEALESDPLHKELLEKLVLYPSAQEKVLQRSSVLQVSVLQSTKDSSKRICVANTHLYWHPKGGYIRLIQMAVALAHIRHVSCDLYPGIPVIFCGDFNSTPSTGMYHFVINGSIPEDHEDWASNGEEERCNMSLTHFFKLKSACGEPAYTNYVGGFHGCLDYIFIDLNALEVEQVIPLPSHEEVTTHQALPSVSHPSDHIALVCDLKWK [PDE12] | 52.1 °C | 52.3 °C | -1.65 | -1.58 | 0.0541 | -0.171
MWRVCARRAQNVAPWAGLEARWTALQEVPGTPRVTSRSGPAPARRNSVTTGYGGVRALCGWTPSSGATPRNRLLLQLLGSPGRRYYSLPPHQKVPLPSLSPTMQAGTIARWEKKEGDKINEGDLIAEVETDKATVGFESLEECYMAKILVAEGTRDVPIGAIICITVGKPEDIEAFKNYTLDSSAAPTPQAAPAPTPAATASPPTPSAQAPGSSYPPHMQVLLPALSPTMTMGTVQRWEKKVGEKLSEGDLLAEIETDKATIGFEVQEEGYLAKILVPEGTRDVPLGTPLCIIVEKEADISAFADYRPTEVTDLKPQVPPPTPPPVAAVPPTPQPLAPTPSAPCPATPAGPKGRVFVSPLAKKLAVEKGIDLTQVKGTGPDGRITKKDIDSFVPSKVAPAPAAVVPPTGPGMAPVPTGVFTDIPISNIRRVIAQRLMQSKQTIPHYYLSIDVNMGEVLLVRKELNKILEGRSKISVNDFIIKASALACLKVPEANSSWMDTVIRQNHVVDVSVAVSTPAGLITPIVFNAHIKGVETIANDVVSLATKAREGKLQPHEFQGGTFTISNLGMFGIKNFSAIINPPQACILAIGASEDKLVPADNEKGFDVASMMSVTLSCDHRVVDGAVGAQWLAEFRKYLEKPITMLL [DLAT] | 54 °C | 52.3 °C | -1.61 | -3.92 | 0.263 | -0.12
MWSEGRYEYERIPRERAPPRSHPSDGYNRLVNIVPKKPPLLDRPGEGSYNRYYSHVDYRDYDEGRSFSHDRRSGPPHRGDESGYRWTRDDHSASRQPEYRDMRDGFRRKSFYSSHYARERSPYKRDNTFFRESPVGRKDSPHSRSGSSVSSRSYSPERSKSYSFHQSQHRKSVRPGASYKRQNEGNPERDKERPVQSLKTSRDTSPSSGSAVSSSKVLDKPSRLTEKELAEAASKWAAEKLEKSDESNLPEISEYEAGSTAPLFTDQPEEPESNTTHGIELFEDSQLTTRSKAIASKTKEIEQVYRQDCETFGMVVKMLIEKDPSLEKSIQFALRQNLHEIESAGQTWQQVPPVRNTEMDHDGTPENEGEETAQSAPQPPQAPQPLQPRKKRVRRTTQLRRTTGAPDITWGMLKKTTQEAERILLRTQTPFTPENLFLAMLSVVHCNSRKDVKPENKQ [PPHLN1] | 52.2 °C | 50.4 °C | 0.616 | 1.63 | -0.763 | 0.849
MWSGRKLGSSGGWFLRVLGPGGCNTKAARPLISSAVYVKNQLSGTLQIKPGVFNEYRTIWFKSYRTIFSCLNRIKSFRYPWARLYSTSQTTVDSGEVKTFLALAHKWWDEQGVYAPLHSMNDLRVPFIRDNLLKTIPNHQPGKPLLGMKILDVGCGGGLLTEPLGRLGASVIGIDPVDENIKTAQCHKSFDPVLDKRIEYRVCSLEEIVEETAETFDAVVASEVVEHVIDLETFLQCCCQVLKPGGSLFITTINKTQLSYALGIVFSEQIASIVPKGTHTWEKFVSPETLESILESNGLSVQTVVGMLYNPFSGYWHWSENTSLNYAAYAVKSRVQEHPASAEFVLKGETEELQANACTNPAVHEKLKK [COQ3] | 55.3 °C | 56.3 °C | -0.812 | -0.988 | 0.345 | -0.0133
MWSPEREAEAPAGGDPAGLLPPEWEEDEERMSFLFSAFKRSREVNSTDWDSKMGFWAPLVLSHSRRQGVVRLRLRDLQEAFQRKGSVPLGLATVLQDLLRRGELQRESDFMASVDSSWISWGVGVFLLKPLKWTLSNMLGDNKVPAEEVLVAVELLKEKAEEVYRLYQNSPLSSHPVVALSELSTLCANSCPDERTFYLVLLQLQKEKRVTVLEQNGEKIVKFARGPRAKVSPVNDVDVGVYQLMQSEQLLSRKVESLSQEAERCKEEARRACRAGKKQLALRSLKAKQRTEKRIEALHAKLDTVQGILDRIYASQTDQMVFNAYQAGVGALKLSMKDVTVEKAESLVDQIQELCDTQDEVSQTLAGGVTNGLDFDSEELEKELDILLQDTTKEPLDLPDNPRNRHFTNSVPNPRISDAELEAELEKLSLSEGGLVPSSKSPKRQLEPTLKPL [CHMP7] | 49.2 °C | 48.9 °C | 0.579 | 1.08 | 0.221 | -0.0049
MYAVYKQAHPPTGLEFSMYCNFFNNSERNLVVAGTSQLYVYRLNRDAEALTKNDRSTEGKAHREKLELAASFSFFGNVMSMASVQLAGAKRDALLLSFKDAKLSVVEYDPGTHDLKTLSLHYFEEPELRDGFVQNVHTPRVRVDPDGRCAAMLVYGTRLVVLPFRRESLAEEHEGLVGEGQRSSFLPSYIIDVRALDEKLLNIIDLQFLHGYYEPTLLILFEPNQTWPGRVAVRQDTCSIVAISLNITQKVHPVIWSLTSLPFDCTQALAVPKPIGGVVVFAVNSLLYLNQSVPPYGVALNSLTTGTTAFPLRTQEGVRITLDCAQATFISYDKMVISLKGGEIYVLTLITDGMRSVRAFHFDKAAASVLTTSMVTMEPGYLFLGSRLGNSLLLKYTEKLQEPPASAVREAADKEEPPSKKKRVDATAGWSAAGKSVPQDEVDEIEVYGSEAQSGTQLATYSFEVCDSILNIGPCANAAVGEPAFLSEEFQNSPEPDLEIVVCSGHGKNGALSVLQKSIRPQVVTTFELPGCYDMWTVIAPVRKEEEDNPKGEGTEQEPSTTPEADDDGRRHGFLILSREDSTMILQTGQEIMELDTSGFATQGPTVFAGNIGDNRYIVQVSPLGIRLLEGVNQLHFIPVDLGAPIVQCAVADPYVVIMSAEGHVTMFLLKSDSYGGRHHRLALHKPPLHHQSKVITLCLYRDLSGMFTTESRLGGARDELGGRSGPEAEGLGSETSPTVDDEEEMLYGDSGSLFSPSKEEARRSSQPPADRDPAPFRAEPTHWCLLVRENGTMEIYQLPDWRLVFLVKNFPVGQRVLVDSSFGQPTTQGEARREEATRQGELPLVKEVLLVALGSRQSRPYLLVHVDQELLIYEAFPHDSQLGQGNLKVRFKKVPHNINFREKKPKPSKKKAEGGGAEEGAGARGRVARFRYFEDIYGYSGVFICGPSPHWLLVTGRGALRLHPMAIDGPVDSFAPFHNVNCPRGFLYFNRQGELRISVLPAYLSYDAPWPVRKIPLRCTAHYVAYHVESKVYAVATSTNTPCARIPRMTGEEKEFETIERDERYIHPQQEAFSIQLISPVSWEAIPNARIELQEWEHVTCMKTVSLRSEETVSGLKGYVAAGTCLMQGEEVTCRGRILIMDVIEVVPEPGQPLTKNKFKVLYEKEQKGPVTALCHCNGHLVSAIGQKIFLWSLRASELTGMAFIDTQLYIHQMISVKNFILAADVMKSISLLRYQEESKTLSLVSRDAKPLEVYSVDFMVDNAQLGFLVSDRDRNLMVYMYLPEAKESFGGMRLLRRADFHVGAHVNTFWRTPCRGATEGLSKKSVVWENKHITWFATLDGGIGLLLPMQEKTYRRLLMLQNALTTMLPHHAGLNPRAFRMLHVDRRTLQNAVRNVLDGELLNRYLYLSTMERSELAKKIGTTPDIILDDLLETDRVTAHF [CPSF1] | 50.3 °C | 50.6 °C | -0.361 | 0.307 | -0.464 | 0.129
MYFPSWLSQLYRGLSRPIRRTTQPIWGSLYRSLLQSSQRRIPEFSSFVVRTNTCGELRSSHLGQEVTLCGWIQYRRQNTFLVLRDFDGLVQVIIPQDESAASVKKILCEAPVESVVQVSGTVISRPAGQENPKMPTGEIEIKVKTAELLNACKKLPFEIKNFVKKTEALRLQYRYLDLRSFQMQYNLRLRSQMVMKMREYLCNLHGFVDIETPTLFKRTPGGAKEFLVPSREPGKFYSLPQSPQQFKQLLMVGGLDRYFQVARCYRDEGSRPDRQPEFTQIDIEMSFVDQTGIQSLIEGLLQYSWPNDKDPVVVPFPTMTFAEVLATYGTDKPDTRFGMKIIDISDVFRNTEIGFLQDALSKPHGTVKAICIPEGAKYLKRKDIESIRNFAADHFNQEILPVFLNANRNWNSPVANFIMESQRLELIRLMETQEEDVVLLTAGEHNKACSLLGKLRLECADLLETRGVVLRDPTLFSFLWVVDFPLFLPKEENPRELESAHHPFTAPHPSDIHLLYTEPKKARSQHYDLVLNGNEIGGGSIRIHNAELQRYILATLLKEDVKMLSHLLQALDYGAPPHGGIALGLDRLICLVTGSPSIRDVIAFPKSFRGHDLMSNTPDSVPPEELKPYHIRVSKPTDSKAERAH [DARS2] | 55.5 °C | 55.9 °C | -0.868 | 0.237 | 0.144 | -0.114
